Earlier results on one substance are cited in article PMC12528386.

The target of this data set is BamA (Escherichia coli) (UniProt P0A940).

A word on the Kd: it is the equilibrium constant for the complex coming apart. Turning to RcsF (from UniProt P69411), the dissociation constant Kd is 400 nM.
